Reference: the supplement of paper PMC10126150
± gives the standard deviation of the averaged measurements.

Test system: ATP
Test: switch fluorescence ratio, 500 uM ATP over buffer (Cy3 cluster intensity, sum of 5 cycles each) (fold (ratio)); higher = stronger signal-on switching upon ATP binding; sequences stand for … in TCGTCGGCAGCGTCAGATGTGTATAAGAGACAGTTTTTTTTTTTTTTTTTTTTTTTTT…TC
Conditions: aptamer strand: ATP DNA aptamer (quencher-CACCTGGGGGAGTATTGCGGAGGAAGG + anchor), 100 nM annealed; ATP concentration: 500 uM
How it was run: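 Clusters carrying Cy3-labelled switching strands on a modified Illumina MiSeq flow-cell were annealed to 100 nM quencher-labelled ATP aptamer and imaged in selection buffer. They were imaged again after 15 min with 500 uM ATP at 22 °C, over five buffer/ATP cycles with NaOH stripping and re-annealing in between. For each cluster, the fluorescence ratio is the summed Cy3 intensity of the target cycles divided by that of the buffer cycles, averaged per switch-domain sequence. Clusters outside 100-1000 RFU were left out.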
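Note: ATP exposure 15 min at 22 °C before imaging.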

Question: Which switch fluorescence ratio does the source give for TTGAGCTAGA here?
Answer: 0.971 ± 0.025

Question: How did the switch fluorescence ratio turn out when TTGAGGATCA was run?
Answer: 1.02 ± 0.029

Question: With TTGAGGATGT as the sequence, how does the switch fluorescence ratio read?
Answer: 1 ± 0.034

Question: How did the switch fluorescence ratio turn out when TTGAGGGATA was run?
Answer: 1.01 ± 0.055

Question: TTGAGGGGGC was tested. Which switch fluorescence ratio did it give?
Answer: 1.01 ± 0.05

Question: Which switch fluorescence ratio does the source give for TTGAGGGGGG here?
Answer: 1.01 ± 0.048

Question: How did the switch fluorescence ratio turn out when TTGAGGGTTG was run?
Answer: 0.987 ± 0.037

Question: TTGAGGTTGT was tested. Which switch fluorescence ratio did it give?
Answer: 0.99 ± 0.028

Question: Which switch fluorescence ratio does the source give for TTGAGTAATG here?
Answer: 1.01 ± 0.017

Question: How did the switch fluorescence ratio turn out when TTGAGTGAAA was run?
Answer: 0.999 ± 0.0017

Question: TTGAGTGACG was tested. Which switch fluorescence ratio did it give?
Answer: 0.9845 ± 0.0025

Question: For TTGAGTTAAA, which switch fluorescence ratio is on record?
Answer: 0.991 ± 0.037

Question: Which switch fluorescence ratio does the source give for TTGAGTTATT here?
Answer: 0.96 ± 0.031

Question: For TTGATAAAGG, which switch fluorescence ratio is on record?
Answer: 1.02 ± 0.026

Question: How did the switch fluorescence ratio turn out when TTGATAAAGT was run?
Answer: 0.997 ± 0.0043

Question: Which switch fluorescence ratio does the source give for TTGATACGTG here?
Answer: 1.01 ± 0.058

Question: How did the switch fluorescence ratio turn out when TTGATATTTT was run?
Answer: 1.04 ± 0.096

Question: How did the switch fluorescence ratio turn out when TTGATCAACG was run?
Answer: 0.995 ± 0.014

Question: With TTGATCACTT as the sequence, how does the switch fluorescence ratio read?
Answer: 1.001 ± 0.005

Question: With TTGATCAGGC as the sequence, how does the switch fluorescence ratio read?
Answer: 0.996 ± 0.016

Question: TTGATCCGAC was tested. Which switch fluorescence ratio did it give?
Answer: 1.35 ± 0.25

Question: With TTGATCCGCT as the sequence, how does the switch fluorescence ratio read?
Answer: 1.74 ± 0.47

Question: TTGATCGGTG was tested. Which switch fluorescence ratio did it give?
Answer: 0.999 ± 0.023

Question: Which switch fluorescence ratio does the source give for TTGATCTGGT here?
Answer: 1.01 ± 0.027

Question: With TTGATGAAAA as the sequence, how does the switch fluorescence ratio read?
Answer: 1 ± 0.038

Question: Which switch fluorescence ratio does the source give for TTGATGCAA here?
Answer: 1.07 ± 0.028

Question: For TTGATGCGTT, which switch fluorescence ratio is on record?
Answer: 1.01 ± 0.015

Question: TTGATGGCGA was tested. Which switch fluorescence ratio did it give?
Answer: 1.22 ± 0.3

Question: For TTGATGGGTG, which switch fluorescence ratio is on record?
Answer: 0.995 ± 0.015

Question: For TTGATGGTGC, which switch fluorescence ratio is on record?
Answer: 1.05 ± 0.038

Question: How did the switch fluorescence ratio turn out when TTGATTAAGA was run?
Answer: 1.06 ± 0.078

Question: TTGATTAGGC was tested. Which switch fluorescence ratio did it give?
Answer: 1.06 ± 0.029

Question: For TTGATTCAAT, which switch fluorescence ratio is on record?
Answer: 1.17 ± 0.33

Question: TTGATTCG was tested. Which switch fluorescence ratio did it give?
Answer: 1.015 ± 0.0037

Question: TTGATTCGT was tested. Which switch fluorescence ratio did it give?
Answer: 0.99 ± 0.02

Question: How did the switch fluorescence ratio turn out when TTGATTTAAA was run?
Answer: 1.01 ± 0.0047

Question: How did the switch fluorescence ratio turn out when TTGATTTATA was run?
Answer: 0.983 ± 0.042

Question: Which switch fluorescence ratio does the source give for TTGATTTGCA here?
Answer: 0.99989 ± 0.00088

Question: Which switch fluorescence ratio does the source give for TTGATTTGGT here?
Answer: 1 ± 0.011

Question: How did the switch fluorescence ratio turn out when TTGATTTTGA was run?
Answer: 1.04 ± 0.037

Question: How did the switch fluorescence ratio turn out when TTGCAAGAGG was run?
Answer: 1.02 ± 0.024

Question: TTGCAAGGCG was tested. Which switch fluorescence ratio did it give?
Answer: 1 ± 0.062

Question: Which switch fluorescence ratio does the source give for TTGCAAGGTT here?
Answer: 1.01 ± 0.017

Question: For TTGCACAAAA, which switch fluorescence ratio is on record?
Answer: 1.033 ± 0.0078

Question: With TTGCAGCATG as the sequence, how does the switch fluorescence ratio read?
Answer: 1.51 ± 0.68

Question: Which switch fluorescence ratio does the source give for TTGCAGTTC here?
Answer: 1.88 ± 1

Question: TTGCCACTCT was tested. Which switch fluorescence ratio did it give?
Answer: 1.04 ± 0.064

Question: Which switch fluorescence ratio does the source give for TTGCCAGTGT here?
Answer: 0.996 ± 0.028

Question: With TTGCCGGGTT as the sequence, how does the switch fluorescence ratio read?
Answer: 1.17 ± 0.17

Question: How did the switch fluorescence ratio turn out when TTGCCTAAGC was run?
Answer: 0.974 ± 0.016

Question: With TTGCCTTTTG as the sequence, how does the switch fluorescence ratio read?
Answer: 1.08 ± 0.16

Question: Which switch fluorescence ratio does the source give for TTGCGAGTC here?
Answer: 0.996 ± 0.062

Question: With TTGCGCCCCC as the sequence, how does the switch fluorescence ratio read?
Answer: 1.104 ± 0.011

Question: With TTGCGGGCAG as the sequence, how does the switch fluorescence ratio read?
Answer: 1.04 ± 0.032

Question: How did the switch fluorescence ratio turn out when TTGCGGGCCG was run?
Answer: 0.967 ± 0.068

Question: With TTGCGTTTCC as the sequence, how does the switch fluorescence ratio read?
Answer: 1.19 ± 0.23

Question: With TTGCGTTTCT as the sequence, how does the switch fluorescence ratio read?
Answer: 1.08 ± 0.086

Question: Which switch fluorescence ratio does the source give for TTGCTAGGGA here?
Answer: 1.01 ± 0.055

Question: Which switch fluorescence ratio does the source give for TTGCTAGTTG here?
Answer: 0.994 ± 0.036

Question: With TTGCTATACG as the sequence, how does the switch fluorescence ratio read?
Answer: 1.2 ± 0.13

Question: TTGCTCAACT was tested. Which switch fluorescence ratio did it give?
Answer: 1 ± 0.026

Question: With TTGCTCCCAC as the sequence, how does the switch fluorescence ratio read?
Answer: 1.62 ± 0.81

Question: For TTGCTCGCTC, which switch fluorescence ratio is on record?
Answer: 1.16 ± 0.084

Question: TTGCTCGTCG was tested. Which switch fluorescence ratio did it give?
Answer: 1.04 ± 0.0046

Question: TTGCTCTAGC was tested. Which switch fluorescence ratio did it give?
Answer: 1.03 ± 0.018

Question: How did the switch fluorescence ratio turn out when TTGCTGATGC was run?
Answer: 1.02 ± 0.039

Question: For TTGCTGGAAG, which switch fluorescence ratio is on record?
Answer: 0.978 ± 0.035

Question: How did the switch fluorescence ratio turn out when TTGCTGTCGG was run?
Answer: 0.985 ± 0.038

Question: Which switch fluorescence ratio does the source give for TTGCTGTTGC here?
Answer: 1.001 ± 0.0095

Question: Which switch fluorescence ratio does the source give for TTGCTTAAAC here?
Answer: 1.02 ± 0.025

Question: Which switch fluorescence ratio does the source give for TTGCTTACGG here?
Answer: 1.02 ± 0.013

Question: How did the switch fluorescence ratio turn out when TTGCTTACTT was run?
Answer: 0.996 ± 0.019

Question: For TTGCTTCGGG, which switch fluorescence ratio is on record?
Answer: 0.968 ± 0.028

Question: For TTGCTTGCGG, which switch fluorescence ratio is on record?
Answer: 0.991 ± 0.041

Question: With TTGCTTGGGC as the sequence, how does the switch fluorescence ratio read?
Answer: 1.02 ± 0.04

Question: For TTGCTTTGTA, which switch fluorescence ratio is on record?
Answer: 0.943 ± 0.018

Question: How did the switch fluorescence ratio turn out when TTGCTTTTAA was run?
Answer: 0.991 ± 0.013

Question: TTGGAAAGGG was tested. Which switch fluorescence ratio did it give?
Answer: 0.985 ± 0.016

Question: TTGGAAAGGT was tested. Which switch fluorescence ratio did it give?
Answer: 1.1 ± 0.16

Question: TTGGAAGTC was tested. Which switch fluorescence ratio did it give?
Answer: 1.04 ± 0.026

Question: How did the switch fluorescence ratio turn out when TTGGAAGTGG was run?
Answer: 0.9995 ± 0.0088

Question: For TTGGAATGGT, which switch fluorescence ratio is on record?
Answer: 1.04 ± 0.029

Question: TTGGAATTGA was tested. Which switch fluorescence ratio did it give?
Answer: 0.992 ± 0.012

Question: Which switch fluorescence ratio does the source give for TTGGACAGGG here?
Answer: 1 ± 0.02

Question: Which switch fluorescence ratio does the source give for TTGGACATGT here?
Answer: 0.989 ± 0.027
